{"source": "paper doi:10.1101/2025.11.26.690829", "origin": "cited, not measured here", "target": "TDP-43 NTD (Homo sapiens) (UniProt Q13148)", "data": [{"substance": "TDP-43 NTD (from UniProt Q13148)", "values": [{"measurement": "Kd", "result": 2000, "unit": "nM"}]}]}
